Test system: peptide library, one residue held at a place counted from the S/T acceptor
Assay: relative phosphorylation of the sub-library (ratio to the mean residue at this position); higher = residue favoured
In short: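 Human or orthologue kinase constructs, purified and recombinant, were incubated under kinase-specific conditions in 384-well plates with biotinylated degenerate peptide sub-libraries. Each sub-library fixed one residue at one position around a central Ser/Thr. Incubations lasted 90 min with peptides at 50 μM and 50 μM ATP spiked with γ-32P-ATP, after which spots on streptavidin membranes were phosphorimaged and quantified by densitometry. Relative sub-library phosphorylation is a ratio to the mean residue at that position.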

Chain of DAPK2, construct: Full length, human (Q9UIK4 whole entry, looked up): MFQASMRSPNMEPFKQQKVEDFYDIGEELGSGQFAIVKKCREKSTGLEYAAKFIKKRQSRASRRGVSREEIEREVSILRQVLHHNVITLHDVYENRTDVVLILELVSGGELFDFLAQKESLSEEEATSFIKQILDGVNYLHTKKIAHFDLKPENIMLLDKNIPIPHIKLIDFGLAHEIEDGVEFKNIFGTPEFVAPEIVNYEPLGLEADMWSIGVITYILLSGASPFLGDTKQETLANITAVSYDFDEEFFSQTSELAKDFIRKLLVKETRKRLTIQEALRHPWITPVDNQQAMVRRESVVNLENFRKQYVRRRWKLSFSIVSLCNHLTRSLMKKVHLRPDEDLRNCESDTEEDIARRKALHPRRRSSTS
Chain of PRKDC, construct: Full length, human (P78527 whole entry, looked up): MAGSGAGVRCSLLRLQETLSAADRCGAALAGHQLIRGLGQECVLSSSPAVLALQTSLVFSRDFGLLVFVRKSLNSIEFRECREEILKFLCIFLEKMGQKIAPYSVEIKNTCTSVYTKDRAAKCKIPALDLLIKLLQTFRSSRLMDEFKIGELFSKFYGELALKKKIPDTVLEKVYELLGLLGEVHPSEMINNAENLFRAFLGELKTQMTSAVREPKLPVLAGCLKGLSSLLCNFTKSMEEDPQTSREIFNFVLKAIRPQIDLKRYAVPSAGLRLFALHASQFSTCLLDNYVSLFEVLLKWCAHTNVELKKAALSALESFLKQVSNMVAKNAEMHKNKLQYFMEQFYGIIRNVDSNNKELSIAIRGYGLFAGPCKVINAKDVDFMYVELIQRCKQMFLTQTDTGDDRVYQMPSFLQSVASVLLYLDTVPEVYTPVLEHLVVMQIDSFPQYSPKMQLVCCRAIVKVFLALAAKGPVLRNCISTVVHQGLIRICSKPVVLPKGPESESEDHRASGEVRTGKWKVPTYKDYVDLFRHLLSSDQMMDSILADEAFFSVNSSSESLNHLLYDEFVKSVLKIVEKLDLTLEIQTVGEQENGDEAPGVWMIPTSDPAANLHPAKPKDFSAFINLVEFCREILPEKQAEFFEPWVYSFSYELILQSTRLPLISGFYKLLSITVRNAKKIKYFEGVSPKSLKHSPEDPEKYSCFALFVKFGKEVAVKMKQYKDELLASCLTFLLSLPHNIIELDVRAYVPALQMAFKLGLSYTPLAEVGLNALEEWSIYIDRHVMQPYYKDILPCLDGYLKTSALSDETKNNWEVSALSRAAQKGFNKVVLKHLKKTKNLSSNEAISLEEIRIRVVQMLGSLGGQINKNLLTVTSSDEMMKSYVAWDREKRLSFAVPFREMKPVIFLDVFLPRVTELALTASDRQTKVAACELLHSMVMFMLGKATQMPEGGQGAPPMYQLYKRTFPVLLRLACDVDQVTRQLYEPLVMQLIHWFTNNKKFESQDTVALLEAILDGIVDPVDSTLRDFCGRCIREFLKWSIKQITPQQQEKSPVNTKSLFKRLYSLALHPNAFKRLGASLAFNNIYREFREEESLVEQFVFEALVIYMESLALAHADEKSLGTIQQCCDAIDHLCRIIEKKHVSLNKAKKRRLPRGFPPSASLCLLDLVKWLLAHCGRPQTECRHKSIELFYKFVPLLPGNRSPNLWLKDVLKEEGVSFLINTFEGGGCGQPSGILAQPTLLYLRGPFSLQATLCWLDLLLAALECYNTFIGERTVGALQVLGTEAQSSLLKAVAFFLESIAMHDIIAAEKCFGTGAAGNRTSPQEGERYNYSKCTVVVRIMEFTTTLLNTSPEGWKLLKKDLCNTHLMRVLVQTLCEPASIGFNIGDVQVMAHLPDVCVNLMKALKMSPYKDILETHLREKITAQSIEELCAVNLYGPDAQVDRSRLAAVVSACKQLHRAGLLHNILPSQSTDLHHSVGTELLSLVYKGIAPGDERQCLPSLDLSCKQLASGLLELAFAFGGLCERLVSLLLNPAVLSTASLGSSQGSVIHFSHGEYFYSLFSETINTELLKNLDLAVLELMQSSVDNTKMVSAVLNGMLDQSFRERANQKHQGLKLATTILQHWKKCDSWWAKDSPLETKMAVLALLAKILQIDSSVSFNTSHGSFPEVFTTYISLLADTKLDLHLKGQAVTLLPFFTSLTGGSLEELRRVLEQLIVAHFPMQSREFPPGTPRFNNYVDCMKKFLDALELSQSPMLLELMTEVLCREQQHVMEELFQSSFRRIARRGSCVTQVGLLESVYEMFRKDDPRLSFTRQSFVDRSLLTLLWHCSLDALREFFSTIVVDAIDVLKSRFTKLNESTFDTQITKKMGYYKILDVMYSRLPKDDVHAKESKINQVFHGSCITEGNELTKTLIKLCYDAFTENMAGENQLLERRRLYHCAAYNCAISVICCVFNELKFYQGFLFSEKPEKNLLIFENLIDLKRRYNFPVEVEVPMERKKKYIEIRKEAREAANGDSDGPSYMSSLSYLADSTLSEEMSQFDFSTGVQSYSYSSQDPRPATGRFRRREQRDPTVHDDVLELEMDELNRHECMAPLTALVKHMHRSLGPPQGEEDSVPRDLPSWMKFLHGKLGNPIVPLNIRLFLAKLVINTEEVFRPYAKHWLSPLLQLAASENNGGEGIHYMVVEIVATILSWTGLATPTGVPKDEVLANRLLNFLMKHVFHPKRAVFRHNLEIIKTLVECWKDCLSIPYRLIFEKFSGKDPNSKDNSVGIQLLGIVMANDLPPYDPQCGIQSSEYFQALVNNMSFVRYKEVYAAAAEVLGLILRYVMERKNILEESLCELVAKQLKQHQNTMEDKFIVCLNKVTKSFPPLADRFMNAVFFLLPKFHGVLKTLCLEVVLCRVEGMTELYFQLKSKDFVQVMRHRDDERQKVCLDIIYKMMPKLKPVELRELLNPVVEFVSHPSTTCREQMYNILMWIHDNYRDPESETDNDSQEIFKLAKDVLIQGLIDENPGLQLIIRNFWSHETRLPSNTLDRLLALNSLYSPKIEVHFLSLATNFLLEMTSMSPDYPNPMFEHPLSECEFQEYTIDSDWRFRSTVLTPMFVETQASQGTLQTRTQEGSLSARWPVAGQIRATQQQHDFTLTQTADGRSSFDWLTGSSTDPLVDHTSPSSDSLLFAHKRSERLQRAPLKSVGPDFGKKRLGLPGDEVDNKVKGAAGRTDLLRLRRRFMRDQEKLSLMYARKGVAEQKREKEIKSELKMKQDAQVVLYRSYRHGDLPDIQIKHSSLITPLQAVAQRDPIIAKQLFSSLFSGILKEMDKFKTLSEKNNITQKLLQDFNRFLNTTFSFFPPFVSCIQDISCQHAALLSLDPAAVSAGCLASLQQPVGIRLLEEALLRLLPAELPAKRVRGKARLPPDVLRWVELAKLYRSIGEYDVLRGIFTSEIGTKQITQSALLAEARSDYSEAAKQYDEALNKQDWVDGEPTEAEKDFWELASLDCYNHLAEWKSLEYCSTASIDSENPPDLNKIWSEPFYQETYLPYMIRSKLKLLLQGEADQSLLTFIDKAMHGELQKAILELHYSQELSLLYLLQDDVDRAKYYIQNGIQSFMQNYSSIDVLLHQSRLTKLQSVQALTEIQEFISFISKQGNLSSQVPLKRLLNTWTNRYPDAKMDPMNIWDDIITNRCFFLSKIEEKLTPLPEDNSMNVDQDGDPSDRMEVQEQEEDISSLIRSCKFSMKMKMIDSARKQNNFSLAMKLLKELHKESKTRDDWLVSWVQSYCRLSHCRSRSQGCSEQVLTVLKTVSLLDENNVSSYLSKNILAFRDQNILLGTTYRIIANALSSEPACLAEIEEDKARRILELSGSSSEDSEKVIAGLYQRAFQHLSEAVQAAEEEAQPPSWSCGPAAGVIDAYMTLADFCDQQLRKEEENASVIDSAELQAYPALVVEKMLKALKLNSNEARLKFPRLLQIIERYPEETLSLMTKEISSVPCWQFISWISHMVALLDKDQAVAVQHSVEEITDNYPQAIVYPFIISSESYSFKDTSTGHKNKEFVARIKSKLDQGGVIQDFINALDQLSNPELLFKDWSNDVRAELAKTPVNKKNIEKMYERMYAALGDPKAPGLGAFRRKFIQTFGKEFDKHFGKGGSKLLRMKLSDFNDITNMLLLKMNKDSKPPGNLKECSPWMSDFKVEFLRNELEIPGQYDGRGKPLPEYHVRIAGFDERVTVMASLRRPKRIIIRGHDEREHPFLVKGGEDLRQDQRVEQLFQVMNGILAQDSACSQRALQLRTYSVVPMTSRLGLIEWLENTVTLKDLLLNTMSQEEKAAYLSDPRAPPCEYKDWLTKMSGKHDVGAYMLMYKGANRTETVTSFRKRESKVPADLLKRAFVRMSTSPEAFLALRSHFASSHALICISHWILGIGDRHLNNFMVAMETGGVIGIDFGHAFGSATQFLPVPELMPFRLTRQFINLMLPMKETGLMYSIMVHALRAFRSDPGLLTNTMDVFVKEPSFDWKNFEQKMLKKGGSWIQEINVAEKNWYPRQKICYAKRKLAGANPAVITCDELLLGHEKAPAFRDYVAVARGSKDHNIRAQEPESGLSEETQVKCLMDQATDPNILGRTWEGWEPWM
Chain of GSK3B, construct: Full length, human (P49841 whole entry, looked up): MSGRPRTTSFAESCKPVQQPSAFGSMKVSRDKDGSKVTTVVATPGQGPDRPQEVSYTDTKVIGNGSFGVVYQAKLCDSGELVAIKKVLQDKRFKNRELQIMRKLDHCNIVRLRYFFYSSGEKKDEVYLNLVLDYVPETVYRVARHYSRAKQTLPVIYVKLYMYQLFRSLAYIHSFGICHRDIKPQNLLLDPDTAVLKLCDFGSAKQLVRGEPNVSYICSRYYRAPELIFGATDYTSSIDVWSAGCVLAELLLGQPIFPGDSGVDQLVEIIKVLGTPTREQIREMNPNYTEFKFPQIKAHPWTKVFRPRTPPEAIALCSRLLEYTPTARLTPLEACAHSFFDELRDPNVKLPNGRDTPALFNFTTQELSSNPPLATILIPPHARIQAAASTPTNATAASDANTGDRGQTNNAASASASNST

GSK3B, construct: Full length, human (from UniProt P49841)
relative phosphorylation
Settings | at +1 | at +2 | at +3 | at +4 | at -1 | at -2 | at -3 | at -4 | at -5
A fixed | 0.927 | 1.01 | 0.893 | 0.871 | 1.05 | 1.09 | 1.63 | 1.02 | 1.15
D fixed | 0.826 | 0.857 | 0.911 | 0.938 | 0.885 | 0.92 | 0.898 | 0.969 | 0.83
E fixed | 0.818 | 0.917 | 1.23 | 2.42 | 0.855 | 0.898 | 0.865 | 0.851 | 0.83
F fixed | 0.942 | 1.05 | 1.06 | 0.871 | 0.863 | 0.855 | 0.812 | 0.918 | 1.05
G fixed | 0.928 | 0.92 | 0.966 | 0.843 | 1.17 | 1.1 | 1.47 | 1.18 | 1.21
H fixed | 0.985 | 1.16 | 1.1 | 0.988 | 1.02 | 0.885 | 0.883 | 0.989 | 1.02
I fixed | 1.02 | 0.984 | 0.929 | 0.795 | 0.889 | 1.01 | 0.871 | 0.913 | 1
K fixed | 1.02 | 1.02 | 1.01 | 0.983 | 1.1 | 1.12 | 0.935 | 1.11 | 0.979
L fixed | 0.966 | 0.994 | 0.923 | 0.849 | 0.916 | 0.882 | 0.785 | 0.966 | 1.03
M fixed | 0.975 | 0.99 | 1.06 | 0.911 | 1.08 | 0.882 | 0.891 | 0.943 | 0.968
N fixed | 0.963 | 1.12 | 0.983 | 0.992 | 1.04 | 0.935 | 0.899 | 1.02 | 0.855
P fixed | 1.77 | 0.904 | 0.972 | 0.942 | 1.18 | 1.23 | 1.13 | 1.08 | 1.1
Q fixed | 1 | 1.09 | 0.986 | 0.92 | 1.09 | 0.931 | 0.889 | 0.942 | 0.895
R fixed | 1.01 | 1.05 | 1.05 | 0.848 | 1.06 | 1.48 | 1.36 | 1.06 | 0.973
V fixed | 1.02 | 0.908 | 0.887 | 0.8 | 0.916 | 0.977 | 0.904 | 0.982 | 1.04
W fixed | 0.977 | 1.01 | 0.997 | 1.03 | 0.962 | 0.957 | 0.913 | 1.05 | 1.08
Y fixed | 0.854 | 1.01 | 1.04 | 1 | 0.931 | 0.846 | 0.866 | 1.02 | 0.997
pThr fixed | 1.01 | 1 | 3.53 | 66.5 | 0.946 | 1.02 | 1.15 | 1.16 | 0.927
pTyr fixed | 1.14 | 1.04 | 2.26 | 2.62 | 1.66 | 1.13 | 1 | 1.15 | 0.929

PRKDC, construct: Full length, human (from UniProt P78527)
relative phosphorylation
Settings | at +1 | at +2 | at +3 | at +4 | at -1 | at -2 | at -3 | at -4 | at -5
A fixed | 0.244 | 1.11 | 0.987 | 0.798 | 1.14 | 1.28 | 1.11 | 0.908 | 1.01
D fixed | 0.156 | 3.46 | 1.28 | 1.49 | 0.887 | 0.607 | 0.595 | 0.795 | 0.728
E fixed | 0.145 | 2.46 | 1.6 | 1.57 | 1.08 | 0.733 | 0.681 | 0.895 | 0.773
F fixed | 1.31 | 0.561 | 1.15 | 1.13 | 1.22 | 1.25 | 1.13 | 1.02 | 1.15
G fixed | 0.222 | 0.753 | 0.712 | 0.971 | 2.01 | 1.28 | 1.11 | 1.35 | 1.13
H fixed | 0.179 | 0.678 | 0.721 | 0.931 | 0.977 | 1.08 | 1.05 | 1.06 | 1.07
I fixed | 0.705 | 0.41 | 0.935 | 0.728 | 0.352 | 0.969 | 1.08 | 1.07 | 1.03
K fixed | 0.166 | 0.556 | 0.627 | 0.625 | 0.345 | 0.776 | 0.796 | 0.961 | 1.2
L fixed | 2.21 | 0.558 | 0.943 | 0.715 | 0.87 | 0.831 | 1 | 0.953 | 0.957
M fixed | 1.25 | 0.688 | 1.27 | 1.09 | 1.07 | 1.06 | 1.16 | 1.02 | 1.06
N fixed | 0.407 | 0.879 | 0.7 | 0.902 | 1.25 | 1.25 | 0.829 | 0.829 | 0.879
P fixed | 0.638 | 1.2 | 0.943 | 0.825 | 0.725 | 0.937 | 1.02 | 0.907 | 0.944
Q fixed | 7.43 | 1 | 0.818 | 0.869 | 1.2 | 0.99 | 0.891 | 0.85 | 0.656
R fixed | 0.362 | 0.725 | 0.623 | 0.88 | 0.686 | 1.13 | 1.12 | 1.17 | 1.21
V fixed | 0.371 | 0.609 | 1.02 | 0.653 | 0.317 | 0.852 | 0.967 | 0.812 | 0.979
W fixed | 0.309 | 0.656 | 1.36 | 1.6 | 0.835 | 0.916 | 1.16 | 1.18 | 1.11
Y fixed | 0.892 | 0.702 | 1.31 | 1.22 | 2.04 | 1.06 | 1.3 | 1.22 | 1.11
pThr fixed | 0.228 | 1.74 | 1.81 | 1.94 | 0.33 | 0.77 | 0.764 | 0.76 | 0.72
pTyr fixed | 0.194 | 0.795 | 1.87 | 1.87 | 0.926 | 0.966 | 0.829 | 0.692 | 0.654

DAPK2, construct: Full length, human (from UniProt Q9UIK4)
relative phosphorylation
Settings | at +1 | at +2 | at +3 | at +4 | at -1 | at -2 | at -3 | at -4 | at -5
A fixed | 0.947 | 0.886 | 0.931 | 0.893 | 0.907 | 1.2 | 0.902 | 1.03 | 1.03
D fixed | 1.24 | 0.825 | 0.801 | 0.816 | 0.878 | 0.624 | 0.608 | 0.797 | 0.77
E fixed | 1.3 | 0.846 | 0.813 | 0.758 | 0.71 | 0.591 | 0.558 | 0.795 | 0.703
F fixed | 0.985 | 1.1 | 0.998 | 1.22 | 0.902 | 0.704 | 0.778 | 1.03 | 1.02
G fixed | 1.02 | 0.895 | 1.01 | 0.933 | 0.983 | 0.869 | 0.846 | 1.02 | 1.08
H fixed | 0.861 | 0.962 | 0.951 | 1.22 | 0.992 | 1.08 | 0.869 | 0.967 | 0.926
I fixed | 0.909 | 1.02 | 1.6 | 1.02 | 0.854 | 0.645 | 0.697 | 0.888 | 0.955
K fixed | 0.739 | 0.891 | 0.842 | 0.837 | 1.22 | 1.23 | 1.59 | 1.12 | 1.09
L fixed | 0.863 | 1.34 | 1.27 | 0.995 | 1.2 | 0.725 | 0.754 | 0.949 | 1.06
M fixed | 1.04 | 1.34 | 0.968 | 0.882 | 1.03 | 0.739 | 0.758 | 0.964 | 0.99
N fixed | 1.25 | 0.913 | 0.852 | 0.912 | 1.25 | 0.855 | 0.666 | 0.97 | 0.839
P fixed | 0.736 | 1.04 | 0.983 | 1.09 | 1.11 | 0.775 | 0.881 | 1.04 | 1.08
Q fixed | 1.77 | 0.983 | 0.878 | 0.927 | 0.995 | 0.838 | 0.716 | 0.915 | 0.869
R fixed | 0.838 | 1.05 | 1 | 0.958 | 1.21 | 3.71 | 3.95 | 1.45 | 1.47
V fixed | 0.91 | 0.948 | 1.15 | 0.973 | 0.916 | 0.688 | 0.674 | 0.894 | 0.92
W fixed | 0.79 | 0.943 | 1 | 1.39 | 0.856 | 0.961 | 0.898 | 1.06 | 0.98
Y fixed | 0.797 | 1.02 | 0.948 | 1.18 | 0.994 | 0.765 | 0.861 | 1.11 | 1.23
pThr fixed | 1.74 | 1.06 | 0.929 | 0.994 | 0.74 | 0.649 | 0.685 | 0.818 | 0.831
pTyr fixed | 1.15 | 1.02 | 1.16 | 1.04 | 0.969 | 0.696 | 0.682 | 0.811 | 0.827

Reference: the supplement of paper PMC9876800
